Laboratory results taken from the DeepSol protein solubility set.

Experiment: soluble on expression in E. coli; label from the status in PepcDB or PDB records
With “NSGQSGAESDIRRKSEEIAAHSNEPSAEKPKEEKKWYDRIGIRGYTQFRYSSTVSGDKDAVSYWPDKSVGEDGSFLIRRARLVIFGDINDHLSLYIQPDFASTPSGSSTGHFAQLRDAYADIHFDKNKEFRVRVGQSKIPYSFENLQSSQNRLALDRNDAMNSCCRDERDIGAFFYWAPTHIRDRFKEVMAKNLKGSGDYGMFAFGIYNGQGANRLEGNNGVHMVTRFTYPHQFSNGQILEAGIQALRGRFVPSTGPAGGFTPVMDAPEKGFKDERVGVHAVLYPQPFGLQAEWNWGRGPQLNDGQTMLTESSLNGGYVLATYKIDGLRWGTLFPFVKWQHFKGGQKFERNAPRNHVNDLEFGLEWQVMKEIELTAVYHMMNRTNVASAPYERYKADVLRFQLQWNY” the “soluble on expression in E. coli” value was “not soluble”.
With “NSNFINIGERTNVAGSRKFARLIREKNYEEALTIARHQVENGAQIIDINFDDALLDARSEMETFLRLIASEPEISKVPVMIDSSNFEVLKVGLKSIQGKAIVNSISLKVGEEKFIEEAKFIKNFGAGVVVMAFDEEGQAATYERKIEICKRAYTILTEKVEFPPENIIFDPNILSIATGIEEHDNYAVNYIKAVKWIKENLPYAKVSGGVSNLSFSFRGNDAIRRAMHSVFLYHAINAGMDMGIVNPAMIDLYDDIDKDLLEKVENVVLNKSSNASESLLEFAQTYKKTTETLEKH” the “soluble on expression in E. coli” value was “not soluble”.
With “NSSKCYIQVTGMTCASCVANIERNLRREEGIYSILVALMAGKAEVRYNPAVIQPPMIAEFIRELGFGATVIENIEGR” the “soluble on expression in E. coli” value was “soluble”.
For “NVSVLNFGNTPVSFRQDGFLNATAIASHFGKLPKDYLKSEQTQQYISALAENLSVRRKILTEANQIVIVKRGGSEQGTWLHPKLAIHFARWLNPKFAVWCDEQIEILLNGKISDGI”, the “soluble on expression in E. coli” value was “soluble”.
In the case of “PADFNGTWEMLSNDNFEDVMKALDIDFATRKIAVHLKQTKVIVQNGDKFETKTLSTFRNYEVNFVIGEEFDEQTKGLDNRTVKTLVKWDGDKLVCVQKGEKENRGWKQWIEGDLLHLEIHCQDKVCHQVFKKKN”, the “soluble on expression in E. coli” value is reported as “soluble”.
With “PATSRFYEQHADCLAEQYTSLKFEDVHASWRAFWPQARDRVLDVGAGSGRDAKWMAEHGCEVIAIEPAQALLRFGKSYCGDSVTWLEDGLPKLEKTINLGFRFDLILVSAVWMHLAPTHRERAFRKLANLLAPNGRLVISLRHGDFSDGRKAYPVSVEELEKFAKNRALMVRNVSLDDDQLQ” the “soluble on expression in E. coli” value was “not soluble”.
In the case of “PCFALTGPEAGSDAGGIPDQGVVCYGMYDGEEVLGVRVSWNKRYITLAPVATVLGLAFKLQDPDGLLGDKKDVGITCALIPADHDGVEIGERHDPLGSAFMNGPTRGEDVFIPMDWLIGG”, the “soluble on expression in E. coli” value is reported as “not soluble”.
In the case of “PDATSKKVVPLGVEIYEINGPFFFGVADRLKGVLDVIEETPKVFILRMRRVPVIDATGMHALWEFQESCEKRGTILLLSGVSDRLYGALNRFGFIEALGEERVFDHIDKALAYAKLLVETAEERGRES”, the “soluble on expression in E. coli” value is reported as “soluble”.
For “PDYIYAKDTAGRFLIANEVTVADNGLESLRDLVGKTDFDLHPHEFAQAVADTERRVLETGEPIFGIEERAIVTKDRDRWLMTSKVPLRSKSGRIIGIVGISRD”, the “soluble on expression in E. coli” value was “not soluble”.
In the case of “PEITGQVSLPPGKRTNLRKTGSERIAHGMRVKFNPLPLALLLDSSLEGEFDLVQRIIYEVDDPSLPNDEGITALHNAVCAGHTEIVKFLVQFGVNVNAADSDGWTPLHCAASCNNVQVCKFLVESGAAVFAMTYSDMQTAADKCEEMEEGYTQCSQFLYGVQEKMGIMNKGVIYALWDYEPQNDDELPMKEGDCMTIIHREDEDEIEWWWARLNDKEGYVPRNLLGLYPRIKPRQRSLA”, the “soluble on expression in E. coli” value is reported as “soluble”.
In the case of “PEKKKRKRGSRGGKKGRKSRIANIPNFEQSLKNLVVSEKILGYGSSGTVVFQGSFQGRPVAVKRMLIDFCDIALMEIKLLTESDDHPNVIRYYCSETTDRFLYIALELCNLNLQDLVESKNVSDENLKLQKEYNPISLLRQIASGVAHLHSLKIIHRDLKPQNILVSTSSRFTADQQTGAENLRILISDFGLCKKLDSGQSSFRTNLNNPSGTSGWRAPELLEESTKRRLTRSIDIFSMGCVFYYILSKGKHPFGDKYSRESNIIRGIFSLDEMKCLHDRSLIAEATDLISQMIDHDPLKRPTAMKVLRHPLFWPKSKKLEFLLKVSDRLEIENRDPPSALLMKFDAGSDFVIPSGDWTVKFDKTFMDNLERYRKYHSSKLMDLLRALRNKYHHFMDLPEDIAELMGPVPDGFYDYFTKRFPNLLIGVYMIVKENLSDDQILREFLYS”, the “soluble on expression in E. coli” value is reported as “soluble”.
For “PELADPTPYDIFGIPKAGSGNPKLDKKSLKKKYHRYVKLYHPDHSDNIQIFSSEKVTNSDSKSPLLLTSSEKLHRFKVISQAYDILCDPKKKIVYDTTRQGW”, the “soluble on expression in E. coli” value was “not soluble”.
With “PELPTCLTRRLADYATEKPLVRLFFQGEEATVPFISQTSRELNMDINILLANIDRFDGVTCGVLVVELTANPLLLEAFINRCEQAGITVEVLGYVLPDGL” the “soluble on expression in E. coli” value was “not soluble”.
In the case of “PEMQSMIVAEINPAYRSLIADEPQIAPLLQDKRVEIVLDDGRKWLRRHPDEKFDLILMNTTWYWRAYSTNLLSAEFLKQVQSHLTPDGIVMFNTTHSPHAFATAVHSIPYAYRYGHMVVGSATPVVFPNKELLKQRLSRLIWPESGRHVFDSSTVDAAAQKVVSRMLIQMTEPSAGAEVITDDNMIVEYKYGRGI”, the “soluble on expression in E. coli” value is reported as “not soluble”.
With “PHLAFFAFAGALGFAGWRQSKKPVQDTQIEQVEALSQAMQEEDTPLTWDDIPHVHTLSLALGYRLVHLVNKDQGAPLSQRIRGVRRNLSEQVGFLLPEVRIRDNLSLKPNQYTISLNGEVIEQGFIEPERLMAIAVGDTYGEIDGILGSDPAYQLPAVWIEHQDKAKALNMGYQVVDDGTVIATHISKIMKTNLAELFTHDDVEAMTQRLTQQAPKLAEALAAALNPAQQLKVYRQLLLDQVPLKDIRTIANTMLESSENTKDPILLAADVRCALKRTLVNLIAGQKPELNVYALSDELEQMLLTSLQQAQASGTVVLDSFPIEPNILGQFQQNLPLIRQQLKQQGLPPILLVMPQLRPLLARYARTFTQGLAVLSYNEIPENKQINVVGNLG” the “soluble on expression in E. coli” value was “not soluble”.
For “PHSHPALTPEQKKELSDIAHRIVAPGKGILAADESTGSIAKRLQSIGTENTEENRRFYRQLLLTADDRVNPCIGGVILFHETLYQKADDGRPFPQVIKSKGGVVGIMVDKGVVPLAGTNGETTTQGLDGLSERCAQYKKDGADFAKWRCVLKIGEHTPSALAIMENANVLARYASICQQNGIVPIVEPEILPDGDHDLKRCQYVTEKVLAAVYKALSDHHIYLEGTLLKPNMVTPGHACTQKYSHEEIAMATVTALRRTVPPAVTGVTFLSGGQSEEEASINLNAINKCPLLKPWALTFSYGRALQASALKAWGGKKENLKAAQEEYVKRALANSLACQGKYTSSGQAGAAASESLFISNHAY”, the “soluble on expression in E. coli” value was “soluble”.
For “PIKVDGANINITAAIYDEIQQEMKRAKVSQALFAKVAANKSQGWLCELLRWKENPSPENRTLWENLCTIRRFLNLPQHERDVIYEEES”, the “soluble on expression in E. coli” value was “soluble”.
In the case of “PILYLHGFRSSPDSFKARLLAQAMHQRGLAGQWQCPQLPASPRQAAELALALAREQLAGQQDPRRLTVIGSSLGGYYATWLAERLGCQAVLLNPAVQAARDLATQVGEHRMYHSDAPFHFLPEYVEELRALYADPLTHPERYFLVAATGDEVLDWREMRDRYPGCRQRIVQGGDHGLSDFPRWMPEVLEFA”, the “soluble on expression in E. coli” value is reported as “not soluble”.
For “PKTGPTMTKELVFSSNIGQHDLDTKSKQIQQWIEKKYHVQVTIKRRKDAEQSEEETEEIFNQILQTMPDIATFSSRPKAIRGGTASMCVFRHLSKKEEK”, the “soluble on expression in E. coli” value was “soluble”.
In the case of “PKTVQDLTSVVQTLLQQMQDKFQTISDQIIGRIDDMSSRIDDLEKNIA”, the “soluble on expression in E. coli” value is reported as “soluble”.
In the case of “PLGSKDNRLLYPKTKIDWGPGENHICLKTPFKNFYVIELFHQAPTFDKTIPLFISDINNSPNLYGIYNYIADHLRHVVLVNNYPVNQINIFGKIVYEQYKEKEFNGVEESYVILVISDFIGIDSKIRVRLSQEQFKEVGLTLDKKNYGKIVELEGEIYNWYDSINVSKKPDRELKVSKITVLSHRPDGLHFEFEQWKKRMEFRKNNLVEPWVFIPTPQRE”, the “soluble on expression in E. coli” value is reported as “soluble”.
For “PLTSTVNGYRNVGYFAQWGVYGRAFQAKQLDVSGTAKNLTHINYSFGNINNQTLTCFMANKAQGTGPNGSDGAGDAWADFGMGYAADKSVSGKADTWDQPLAGSFNQLKQLKAKNPKLKVMISLGGWTWSKNFSKAAATEASRQKLVSSCIDLYIKGNLPNFEGRGGAGAAAGIFDGIDIDWEWPGTNSGLAGNGVDTVNDRANFKALLAEFRKQLDAYGSTNNKKYVLSAFLPANPADIDAGGWDDPANFKSLDFGSIQGYDLHGAWNPTLTGHQANLYDDPADPRAPSKKFSADKAVKKYLAAGIDPKQLGLGLAAYGRGWTGAKNVSPWGPATDGAPGTYETANEDYDKLKTLGTDHYDAATGSAWRYDGTQWWSYDNIATTKQKTDYIVSKGLGGGMWWELSGDRNGELVGAMSDKFRAAAPGPVTEAAPP”, the “soluble on expression in E. coli” value was “soluble”.
With “PQEKLIFTLDSADRAYRVLVEAMNEGTATLASDGTILYCNRQFAELTKMSSGAVVGTSIYGFIAPEDAITFKALLKQKNSVGELKFRAQGGTSVPVYLSISSLQSEGSPSAWCLVVTDL” the “soluble on expression in E. coli” value was “not soluble”.
With “PRAAGHSEEVLEREASFSLTTIDGEVISLNNVGGDVVILWFMAAWCPSCVYMADLLDRLTEKYREISVIAIDFWTAEALKALGLNKPGYPPPDTPEMFRKFIANYGDPSWIMVMDDGSLVEKFNVRSIDYIVIMDKSSNVLYAGTTPSLGELESVIKSVQGG” the “soluble on expression in E. coli” value was “soluble”.
With “PSGTIVGLYTHTDFAKKLSVDIELNYISMGSLFTMNKDTPEQRDYKVSLGYISLPVNLNYCVYKHIHVQVGIQTLALLTAVTEQKYQNVVTKGKNINDFHAIDAGPTIGCYYQFEKGLQLGVRYYRGIQNVVKENMVLYNTGIQFLLTYQF” the “soluble on expression in E. coli” value was “not soluble”.
With “PSLSKEAALVHEALVARGLETPLRPPVHEMDNETRKSLIAGHMTEIMQLLNLDLADDSLMETPHRIAKMYVDEIFSGLDYANFPKITLIENKMKVDEMVTVRDITLTSTSEHHFVTIDGKATVAYIPKDSVIGLSKINRIVQFFAQRPQVQERLTQQILIALQTLLGTNNVAVSIDAVHYCVKARGIRDATSATTTTSLGGLFKSSQNTRHEFLRAVRHHN” the “soluble on expression in E. coli” value was “soluble”.
For “PSVYDAAAQLTADVKKDLRDSWKVWGSDKKGNGVALMTTLFADNQETIGYFKRLGDVSQGMANDKLRGHSITLMYALQNFIDQLDNPDDLVCVVEKFAVNHITRKISAAEFGKINGPIKKVLASKNFGDKYANAWAKLVAVVQAAL”, the “soluble on expression in E. coli” value was “soluble”.
In the case of “PTARRDIRFAWSGDTAGQGWGIDDEGMRTYATMAQHQPDFFIHSGDTIYADGPMKDEVEKDGAVIWKNTTLIDEKRKVAETLAEFRGQWKYNLMDEHVQAMNALCPTFFQWDDHEVVNNWSDAKDLSADDRYTEKSVHVLQSRAARAFHEMTPLRITPAEPGRVYRKISYGPMLDVFFLDLRSYRGPNGASMEDEITDQSRILGAEQLAWIKRELAASTATWKVIASDMPIGLIVWDNWKEKAGAEAISNGDHGPAKGRELEIADLLRFIKSAGVRNTVWFTADVHYTAAHHYSPERAQFQDFDPFWEFVSGPLHAGTFGPNDLDRTFGPEVKFVKAPTPEQGVNLPPSMGLQFFGLVDIDAASQQMKVRLMDRGNTELWSVTLDPVLSAI”, the “soluble on expression in E. coli” value is reported as “not soluble”.
For “PTEFLYTSKIAAISWAATGGRQQRVYFQDLNGKIREAQRGGDNPWTGGSSQNVIGEAKLFSPLAAVTWKSAQGIQIRVYCVNKDNILSEFVYDGSKWITGQLGSVGVKVGSNSKLAALQWGGSESAPPNIRVYYQKSNGSGSSIHEYVWSGKWTAGASFGSTVPGTGIGATAIGPGRLRIYYQATDNKIREHCWDSNSWYVGGFSASASAGVSIAAISWGSTPNIRVYWQKGREELYEAAYGGSWNTPGQIKDASRPTPSLPDTFIAANSSGNIDISVFFQASGVSLQQWQWISGKGWSIGAVVPTGTPAGW”, the “soluble on expression in E. coli” value was “soluble”.
